Source: patent publication US20220153839A1 (NBE THERAPEUTICS, published 2022)
Changes are numbered by the printed parent chain.

B1: HuXBR1-402(3)-G5-PNU (Adc456) (other)
VH: QVQLRESGPGLVKPSETLSLTCTVSGFDISSYYMSWVRQPPGKGLEWIGAIGISGNAYYASWAKSRVTISRDTSKNQFSLKLSSVTAADTAVYYCARDHPTYGMDLWGPGTLVTVSS
VL: SYELTQPLSVSVALGQTARITCEGNNIGSKAVHWYQQKPGQAPVLVIYDDDERPSGIPERFSGSNSGNTATLTISRAQAGDEADYYCQVWDSSAYVFGGGTKLTVLG
modifications: Gly5-EDA-PNU joined by sortase to the C-terminal G5SLPETG tag of the full light chain; Gly5-EDA-PNU joined by sortase to the C-terminal LPETG tag of the full heavy chain
B2: HuXBR1-402(8)-G5-PNU (Adc457) (other)
VH: B1 VH with R5Q
VL: SYELTQPPSVSVSPGQTAIITCEGNNIGSKAVHWYQQKPGLSPVLVIYDDDERPSGIPERFSGSNSGNTATLTVSGTQDMDEADYYCQVWDSSAYVFGGGTKLTVLG
modifications: Gly5-EDA-PNU joined by sortase to the C-terminal G5SLPETG tag of the full light chain; Gly5-EDA-PNU joined by sortase to the C-terminal LPETG tag of the full heavy chain
B3: HuXBR1-402(15)-G5-PNU (Adc458) (other)
VH: B1 VH with R5Q
VL: B1 VL with L8P, L14P, Q16K, A77V, Q78E
modifications: Gly5-EDA-PNU joined by sortase to the C-terminal G5SLPETG tag of the full light chain; Gly5-EDA-PNU joined by sortase to the C-terminal LPETG tag of the full heavy chain
B4: HuXBR1-402(17)-G5-PNU (Adc459) (other)
VH: B1 VH
VL: B1 VL with L8P, L14P, Q16K, A77V, Q78E
modifications: Gly5-EDA-PNU joined by sortase to the C-terminal G5SLPETG tag of the full light chain; Gly5-EDA-PNU joined by sortase to the C-terminal LPETG tag of the full heavy chain
B5: ERR1-301 chimeric rabbit/human Fab (Fab, V domains shown)
VH: QEQLEESGGGLVTPGGSLTLTCTASGFTISTYHMSWVRQAPGKGLEWIGSIYAGSGSTYYASWVNGRFTISSNTTQNTVSLQMNSLTVADTATYFCARDHPSYGMDLWGPGTLVTVSS
VL: SYELTQLPSVSVSLGQTARITCGGNSIGSKAVNWYQQKPGLAPGLLIYDDDERPSGVPDRFSASNSGDTATLTISGAQAEDEADYYCQLWDSSAVAYVFGGGTQLTVTG
notes: Chimeric rabbit/human Fab with His tag, expressed in E. coli (pET11a); lambda light chain
B6: ERR1-316 chimeric rabbit/human Fab (Fab, V domains shown)
VH: QEQLEESGGRLVTPGTPLTLTCTASGFFLSSYYVSWVRQAPGKGLEWIGAIGTGGSAYYASWAKSRSTITRNTNLSTVTLKMTSLTAADTATYFCARDHPNYGMDLWGPGTLVTVSS
VL: B5 VL with A63G, E80G, A94T, V95G, V98A
notes: as for B5
B7: ERR1-403 chimeric rabbit/human Fab (Fab, V domains shown)
VH: QEQLKESGRGLVQPGGSLKLSCKASGFDFSGWYMTWVRQAPGKGLEWIGTIGTTKGRTYYASWVNGRFTISSNAQNTVDLQMNSLTAADRATYFCVRGSDYFDLWGPGTLVTISS
VL: B5 VL with D59A, A63G, E80G, V95G
notes: as for B5
B8: ERR1-409 chimeric rabbit/human Fab (Fab, V domains shown)
VH: QEQLVESGGRLVTPGGSLTLTCTASGFSLSSYYMGWVRQAPGKGLEWIGTIYGGSGSTWYASWVKGRFTISKTSTAVDLKITSLTTEDTATYFCARSYPGWTTEPYFDIWGPGTLVTVSS
VL: QFVLTQPQSVSGSLGQTVSISCNRDSGNIEDYYVHWYQQHPGKAPTTVIYNDDQRPSGVPDRFSGSIDSTSNSASLTITGLLAEDEADYYCLSSDSSAYVFGGGTQLTVTG
notes: as for B5
B9: ERR1-TOP4 chimeric rabbit/human Fab (Fab, V domains shown)
VH: QSVEESGGRLVTPGTPLTLTCTASGIDLSRYAVNWVRQAPGKGLEWIGVISGSGTTYYASWAKGRFTISKTSTTVDLKITSPTTEDTATYFCARGWATDGIFDYDDTFNLWGPGTLVTVSS
VL: SYELTQLPSVSVSLGQTARITCGGDSIESKAVHWYQQKPGLAPGLLVYNDDERPSGVPDRFSGSNSGDTATLTISGAQAGDEADYYCQLWDGSAYVFGGGTQLTVTG
notes: as for B5

Target: human ROR1, full length, on cells (human, UniProt Q01973 30-937)
Sequence (Q01973 30-937): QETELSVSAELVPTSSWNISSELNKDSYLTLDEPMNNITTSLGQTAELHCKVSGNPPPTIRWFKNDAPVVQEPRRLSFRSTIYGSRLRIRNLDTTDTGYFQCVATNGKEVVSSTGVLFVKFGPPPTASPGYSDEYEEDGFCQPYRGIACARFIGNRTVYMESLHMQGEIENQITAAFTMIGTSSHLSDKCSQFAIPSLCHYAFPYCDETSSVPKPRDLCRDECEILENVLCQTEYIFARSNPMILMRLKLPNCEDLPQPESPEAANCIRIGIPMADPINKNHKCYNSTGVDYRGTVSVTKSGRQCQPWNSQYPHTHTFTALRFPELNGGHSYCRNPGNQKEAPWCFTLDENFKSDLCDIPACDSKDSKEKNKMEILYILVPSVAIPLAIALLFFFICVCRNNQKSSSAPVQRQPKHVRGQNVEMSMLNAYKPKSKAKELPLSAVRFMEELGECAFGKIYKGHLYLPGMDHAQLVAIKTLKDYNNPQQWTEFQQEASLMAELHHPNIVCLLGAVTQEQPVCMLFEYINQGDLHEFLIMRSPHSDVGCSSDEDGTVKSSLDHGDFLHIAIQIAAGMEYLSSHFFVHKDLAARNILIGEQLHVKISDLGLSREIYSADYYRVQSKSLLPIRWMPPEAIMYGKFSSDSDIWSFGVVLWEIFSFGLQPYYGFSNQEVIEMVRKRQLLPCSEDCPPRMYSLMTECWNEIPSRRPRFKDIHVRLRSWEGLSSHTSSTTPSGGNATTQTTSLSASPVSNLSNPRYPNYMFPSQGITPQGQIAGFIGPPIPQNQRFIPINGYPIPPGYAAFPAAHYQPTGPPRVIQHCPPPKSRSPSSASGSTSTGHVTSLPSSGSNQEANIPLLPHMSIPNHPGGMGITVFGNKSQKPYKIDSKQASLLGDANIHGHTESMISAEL
Experiment: cell-based or functional assay

| Binder | IC50 values on 697 cells (in vitro cell killing) |
| --- | --- |
| B1 | 0.0981 µg/mL |
| B2 | 0.164 µg/mL |
| B3 | 0.106 µg/mL |
| B4 | 0.0706 µg/mL |

Target: T1, hROR2 (human, UniProt Q01974)
T1 construct: full length, on the cell surface; also called 63-12 / hROR2; ROR2 on T47D cells
T1 sequence (Q01974 34-943 limits assumed): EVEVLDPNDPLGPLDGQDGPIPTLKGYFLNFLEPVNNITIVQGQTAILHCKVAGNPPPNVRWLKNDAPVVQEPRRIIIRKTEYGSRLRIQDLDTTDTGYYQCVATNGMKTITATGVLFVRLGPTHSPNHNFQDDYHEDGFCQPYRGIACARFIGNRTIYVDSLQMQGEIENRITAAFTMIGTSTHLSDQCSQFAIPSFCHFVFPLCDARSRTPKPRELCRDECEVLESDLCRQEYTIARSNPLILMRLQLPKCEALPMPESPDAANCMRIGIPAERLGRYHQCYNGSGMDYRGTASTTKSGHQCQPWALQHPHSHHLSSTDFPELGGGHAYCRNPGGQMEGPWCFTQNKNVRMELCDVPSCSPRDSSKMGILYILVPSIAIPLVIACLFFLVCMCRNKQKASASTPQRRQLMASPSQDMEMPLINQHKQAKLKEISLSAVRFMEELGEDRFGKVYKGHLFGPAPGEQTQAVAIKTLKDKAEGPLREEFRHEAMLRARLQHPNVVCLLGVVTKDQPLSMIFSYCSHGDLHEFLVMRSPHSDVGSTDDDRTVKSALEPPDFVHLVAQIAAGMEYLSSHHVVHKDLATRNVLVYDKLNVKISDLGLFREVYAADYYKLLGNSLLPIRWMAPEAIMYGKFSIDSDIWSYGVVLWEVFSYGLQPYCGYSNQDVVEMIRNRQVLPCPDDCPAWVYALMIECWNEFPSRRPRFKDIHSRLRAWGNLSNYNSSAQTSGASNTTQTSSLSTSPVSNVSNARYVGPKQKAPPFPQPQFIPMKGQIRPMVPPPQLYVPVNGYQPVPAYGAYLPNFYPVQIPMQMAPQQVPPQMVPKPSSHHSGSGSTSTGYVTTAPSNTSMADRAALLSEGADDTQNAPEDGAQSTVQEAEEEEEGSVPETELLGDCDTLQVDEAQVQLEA
Experiment: flow cytometry on 63-12 / hROR2 cells; anti-His Alexa Fluor 488
Method: Flow cytometry: Cells were stained using standard flow cytometry methodology. Briefly, for purified anti-ROR1 Fab (FIG. 3), 0.1-1×10⁶ cells were stained with 1000 ng/100 μL of Fab on ice for 1 h. After washing twice with ice-cold flow cytometry buffer (PBS containing 1% (v/v) BSA, 0.1% sodium azide and 1 mM EDTA), the cells were incubated with a 1:1000 dilution of a mouse anti-His tag mAb conjugated to Alexa Fluor 488 (Qiagen) in 100 μL flow cytometry buffer on ice for 30 min. For purified anti-ROR1 IgG1 (FIG. 8), 0.1-1×10⁶ cells were blocked by 4% goat serum for 15 min at room temperature and then incubated with 100 ng/100 μL of IgG on ice for 1 h. After washing twice with ice-cold flow cytometry buffer, cells were stained with a 1:500 dilution of goat anti-human IgG, Fcγ pAbs conjugated to APC (Jackson ImmunoResearch) in 100 μL flow cytometry buffer on ice for 30 min. For commercial goat anti human ROR1 polyclonal antibody (FIG. 8), 0.1-1×10⁶ cells were stained with 200 ng/100 μL of Ab on ice for 1 h. […] Finally, 4′,6-diamidino-2-phenylindole (DAPI) was added to a final concentration of 100 ng/mL to exclude dead cells from the analysis. Cells were analyzed using a FACSCalibur instrument (BD Biosciences) and FlowJo analytical software (Tree Star, Ashland, Oreg.).

| Binder | binding result |
| --- | --- |
| B5 | no binding (tested: 1000 ng/100 µL) |
| B6 | no binding (tested: 1000 ng/100 µL) |
| B7 | no binding (tested: 1000 ng/100 µL) |
| B8 | no binding (tested: 1000 ng/100 µL) |
| B9 | no binding (tested: 1000 ng/100 µL) |

Target: T2, Kr (human, UniProt Q01973)
T2 construct: Kringle domain of the extracellular domain; also called hFc-hROR1-Kr
T2 sequence (Q01973 312-391 limits assumed): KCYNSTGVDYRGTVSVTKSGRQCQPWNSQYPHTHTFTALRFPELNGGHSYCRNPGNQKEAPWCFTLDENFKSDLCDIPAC
Experiment: ELISA on directly coated hFc fusion proteins of hROR1 domains; anti-His-HRP; A405
Method: (§1) ELISA: For ELISA (FIG. 2), each well of a 96-well Costar 3690 plate (Corning, Corning, N.Y.) was coated with 100 ng anti-human IgG1 Fc in 25 μL coating buffer (0.1 M Na₂CO₃, 0.1 M NaHCO₃, pH 9.6) for 1 h at 37° C. After blocking with 150 μL 3% (w/v) BSA/TBS for 1 h at 37° C., hFc-hROR1 or hFc-mROR1 was captured following incubation at 100 ng/50 μL for 1 h at 37° C. Then 100 ng/50 μL of Fab was applied in each well at 37° C. 2 h later, 50 μL of a 1:1000 dilution of a mouse anti-His tag mAb conjugated to horse radish peroxidase (HRP) (R&D Systems, Minneapolis, Minn.) in 1% (w/v) BSA/TBS was used to detect the Fab. To determine the epitopes (FIG. 4), hFc fusion proteins containing different domains of hROR1 were coated directly, followed by incubation with Fab before detection by mouse anti-His tag mAb conjugated to HRP. Washing with PBS was repeated and colorimetric detection was performed using 2,2′-azino-bis(3-ethylbenzthiazoline)-6-sulfonic acid (Roche) as substrate according to the manufacturer's directions. The absorbance was measured at 405 nm using a SpectraMax M5 microplate reader (Molecular Devices; Sunnyvale, Calif.) and SoftMax Pro software (Molecular Devices).

| Binder | binding result |
| --- | --- |
| B5 | no binding |
| B6 | no binding |
| B7 | no binding |
| B8 | no binding |
| B9 | no binding |

Target: T3, Fr
T3 construct: also called hFc-hROR1-Fr
T3 sequence (chain, as listed by the source limits assumed): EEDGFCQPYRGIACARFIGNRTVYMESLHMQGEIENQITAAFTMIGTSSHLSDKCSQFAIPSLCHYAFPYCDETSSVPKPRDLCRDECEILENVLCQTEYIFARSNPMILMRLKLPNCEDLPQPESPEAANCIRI
Experiment: as above
Method: as §1

| Binder | binding result |
| --- | --- |
| B5 | no binding |
| B6 | no binding |
| B7 | no binding |
| B8 | no binding |
| B9 | no binding |

Target: T4, Ig (human, UniProt Q01973)
T4 construct: Ig domain of the extracellular domain; also called hFc-hROR1-Ig
T4 sequence (Q01973 42-147 limits assumed): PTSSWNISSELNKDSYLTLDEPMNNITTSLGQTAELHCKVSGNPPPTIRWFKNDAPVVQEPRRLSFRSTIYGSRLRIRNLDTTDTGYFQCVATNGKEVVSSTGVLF
Experiment: as above
Method: as §1

| Binder | binding result |
| --- | --- |
| B5 | no binding |
| B6 | no binding |
| B7 | no binding |
| B8 | no binding |
| B9 | no binding |

Target: T5, Fr + Ki (human, UniProt Q01973)
T5 construct: Frizzled and Kringle domains of the extracellular domain; also called hFc-hROR1-Fr-Ki
T5 sequence (Q01973 165-391 limits assumed): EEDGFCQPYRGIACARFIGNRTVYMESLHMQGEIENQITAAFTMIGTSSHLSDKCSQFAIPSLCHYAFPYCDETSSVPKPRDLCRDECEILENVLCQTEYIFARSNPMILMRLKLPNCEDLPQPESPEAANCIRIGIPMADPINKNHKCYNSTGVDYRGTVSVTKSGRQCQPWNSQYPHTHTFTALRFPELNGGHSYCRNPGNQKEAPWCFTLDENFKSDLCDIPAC
Experiment: as above
Method: as §1

| Binder | binding result |
| --- | --- |
| B5 | no binding |
| B6 | no binding |
| B7 | no binding |
| B8 | no binding |
| B9 | no binding |

Target: T6, hFc-hROR1 (extracellular domain of human ROR1 fused to the Fc domain of human IgG1) (human, UniProt Q01973 30-406)
T6 construct: extracellular domain; also called hFc-ROR1; not shown: Fc domain of human IgG1
T6 sequence (Q01973 30-406): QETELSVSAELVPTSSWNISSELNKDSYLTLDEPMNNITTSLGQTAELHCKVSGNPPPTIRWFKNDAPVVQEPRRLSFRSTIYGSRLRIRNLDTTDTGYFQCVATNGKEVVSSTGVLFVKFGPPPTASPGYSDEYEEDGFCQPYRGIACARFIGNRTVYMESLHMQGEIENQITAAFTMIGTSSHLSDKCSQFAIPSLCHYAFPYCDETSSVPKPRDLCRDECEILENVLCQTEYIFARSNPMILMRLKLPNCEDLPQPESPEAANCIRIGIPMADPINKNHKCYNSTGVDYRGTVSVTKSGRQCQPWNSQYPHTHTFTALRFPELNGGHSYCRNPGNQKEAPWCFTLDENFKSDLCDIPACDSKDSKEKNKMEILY
Experiment: SPR (Biacore X100); hFc-hROR1 captured by anti-human Fcγ antibody on CM5; Fab as analyte; 1:1 Langmuir fit
Method: (A) Shown are Biacore X100 sensorgrams obtained for the binding of each Fab to hFc-hROR1 captured by anti-human Fcγ antibody immobilized on CM5 chip after instantaneous background depletion. Fabs were injected at five different concentrations with the highest concentration indicated in table (B), one of the five concentrations was tested in duplicates. The equilibrium dissociation constant (Kd) was calculated from koff/kₒₙ (kₒₙ, association rate constant; koff, dissociation rate constant).
Surface plasmon resonance: Surface plasmon resonance for the measurement of the affinities of all Fabs to hFc-hROR1 and for epitope mapping studies were performed on a Biacore X100 instrument using Biacore reagents and software (GE Healthcare, Piscataway, N.J.). Anti-Human IgG (Fc) antibody was immobilized on a CM5 sensor chip following the instruction of Human Antibody Capture Kit (GE Healthcare, Piscataway, N.J.). The sensor chip included an empty flow cell for instantaneous background depletion. All binding assays used 1×HBS-EP+ running buffer (10 mM HEPES, 150 mM NaCl, 3 mM EDTA (pH 7.4), and 0.05% (v/v) Surfactant P20) and a flow rate of […]. […] The sensor chip was regenerated with […] from the Human Antibody Capture Kit without any loss of binding capacity. Calculation of association (kₒₙ) and dissociation (koff) rate constants was based on a 1:1 Langmuir binding model. The equilibrium dissociation constant (Kd) was calculated from koff/kₒₙ. For epitope mapping studies, each Fab was prepared at 500 nM alone in 1×HBS-EP+ running buffer and then injected in order as indicated in FIG. 5.

| Binder | Kd | koff | kon |
| --- | --- | --- | --- |
| B5 | 118 nM | 0.1 s⁻¹ | 849000 M⁻¹ s⁻¹ |
| B6 | 121 nM | 0.133 s⁻¹ | 1.1e+06 M⁻¹ s⁻¹ |
| B7 | 41.6 nM | 0.00128 s⁻¹ | 30800 M⁻¹ s⁻¹ |
| B8 | 281 nM | 0.0162 s⁻¹ | 57500 M⁻¹ s⁻¹ |
| B9 | 240 nM | 0.0592 s⁻¹ | 247000 M⁻¹ s⁻¹ |

Target: T7, hFc-hROR2 (extracellular domain of human ROR2 fused to the Fc domain of human IgG1) (human, UniProt Q01974 34-403)
T7 construct: extracellular domain; not shown: Fc domain of human IgG1
T7 sequence (Q01974 34-403): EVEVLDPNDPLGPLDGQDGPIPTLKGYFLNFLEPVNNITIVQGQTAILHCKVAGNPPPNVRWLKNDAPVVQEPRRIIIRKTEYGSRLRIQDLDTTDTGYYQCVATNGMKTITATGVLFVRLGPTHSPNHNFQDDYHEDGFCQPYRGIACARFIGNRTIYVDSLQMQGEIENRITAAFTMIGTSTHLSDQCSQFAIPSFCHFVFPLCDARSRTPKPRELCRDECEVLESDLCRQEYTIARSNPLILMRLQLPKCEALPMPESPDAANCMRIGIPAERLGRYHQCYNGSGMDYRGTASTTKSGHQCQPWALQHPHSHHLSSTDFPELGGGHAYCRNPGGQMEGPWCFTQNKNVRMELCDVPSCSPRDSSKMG
Experiment: ELISA as for hFc-hROR1; third bar series, keyed 'hFc-hROR1' a second time on the sheet, taken as hFc-hROR2 by legend paragraph 27
Method: (§2) The binding of each chimeric rabbit/human Fab to hROR1 and mROR1 fused with human IgG1 Fc (hFc-hROR1 and hFc-mROR1) was analyzed by ELISA. hFc-ROR1 or hFc-mROR1 were captured by anti-human IgG1 Fc antibody immobilized on plate and then incubated with hROR1 specific Fabs comprising a His-tag via detection with mouse anti-His tag.
as §1

| Binder | binding result |
| --- | --- |
| B5 | no binding (tested: 100 ng/50 µL) |
| B6 | no binding (tested: 100 ng/50 µL) |
| B7 | no binding (tested: 100 ng/50 µL) |
| B8 | no binding (tested: 100 ng/50 µL) |
| B9 | no binding (tested: 100 ng/50 µL) |

Target: T8, hFc-mROR1 (extracellular domain of mouse ROR1 fused to the Fc domain of human IgG1) (human; mouse, UniProt Q9Z139 30-406)
T8 construct: extracellular domain; not shown: Fc domain of human IgG1
T8 sequence (Q9Z139 30-406): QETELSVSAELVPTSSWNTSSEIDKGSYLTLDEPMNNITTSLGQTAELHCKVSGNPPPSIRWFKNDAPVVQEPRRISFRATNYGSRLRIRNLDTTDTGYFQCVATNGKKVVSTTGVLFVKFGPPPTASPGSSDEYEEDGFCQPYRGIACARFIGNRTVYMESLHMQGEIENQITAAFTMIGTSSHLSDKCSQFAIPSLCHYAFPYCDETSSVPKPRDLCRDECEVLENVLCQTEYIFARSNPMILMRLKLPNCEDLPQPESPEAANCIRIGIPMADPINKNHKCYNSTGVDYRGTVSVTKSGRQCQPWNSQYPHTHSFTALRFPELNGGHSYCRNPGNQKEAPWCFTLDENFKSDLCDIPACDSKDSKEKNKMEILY
Experiment: ELISA; hFc fusion captured by coated anti-human IgG1 Fc; anti-His-HRP; A405
Method: as §2, §1

| Binder | binding result |
| --- | --- |
| B5 | no binding (tested: 100 ng/50 µL) |
| B6 | no binding (tested: 100 ng/50 µL) |
| B7 | no binding (tested: 100 ng/50 µL) |
| B8 | no binding (tested: 100 ng/50 µL) |
| B9 | no binding (tested: 100 ng/50 µL) |
